# Measured values as given in article PMC4945038, “Rad51 Nucleoprotein Filament Disassembly Captured Using Fluorescent Plasmodium falciparum SSB as a Reporter for Single-Stranded DNA”.
# Assays:
# [1] = biological target: T1, Pf-SSB-MDCC (Plasmodium falciparum, UniProt Q8I415 77-284); assay: ITC; 200 mM NaCl; stoichiometric, 2 (dT)35 per tetramer; dHobs -71.8±0.2 kcal/mol; Titration and stopped-flow: 20 mM Tris-Cl pH 8, 0.1 mM EDTA, 100 mM NaCl, 1 mM TCEP, 25 C; ITC same with 200 mM NaCl; Rad51 filaments: 25 mM Tris-Cl pH 7.7, 1 mM TCEP, 5% glycerol, 10 mM MgCl2, 50 mM NaCl, 3 mM ATP, ATP regeneration; details: protein: recombinant; tags: MDCC on Cys93; chain copies: 4; single strand; 2 copies per tetramer
# [2] = biological target: Pf-SSB (Plasmodium falciparum, UniProt Q8I415 77-284); assay: ITC; 200 mM NaCl; stoichiometric, 2 (dT)35 per tetramer; dHobs -73.1±0.2 kcal/mol; Titration and stopped-flow: 20 mM Tris-Cl pH 8, 0.1 mM EDTA, 100 mM NaCl, 1 mM TCEP, 25 C; ITC same with 200 mM NaCl; Rad51 filaments: 25 mM Tris-Cl pH 7.7, 1 mM TCEP, 5% glycerol, 10 mM MgCl2, 50 mM NaCl, 3 mM ATP, ATP regeneration; details: protein: recombinant; chain copies: 4; single strand; 2 copies per tetramer
# [3] = biological target: T1, Pf-SSB-MDCC; assay: fluorescence titration; 100 mM NaCl; stoichiometric, 1 tetramer per (dT)70; ~4-fold fluorescence increase; Titration and stopped-flow: 20 mM Tris-Cl pH 8, 0.1 mM EDTA, 100 mM NaCl, 1 mM TCEP, 25 C; ITC same with 200 mM NaCl; Rad51 filaments: 25 mM Tris-Cl pH 7.7, 1 mM TCEP, 5% glycerol, 10 mM MgCl2, 50 mM NaCl, 3 mM ATP, ATP regeneration; details: protein: recombinant; tags: MDCC on Cys93; chain copies: 4; single strand
Binder,binding result [1],binding result [2],binding result [3]
TTTTTTTTTTTTTTTTTTTTTTTTTTTTTTTTTTT (ssDNA) [(dT)35],binds,binds,
(dT)70 (ssDNA) DNA: TTTTTTTTTTTTTTTTTTTTTTTTTTTTTTTTTTTTTTTTTTTTTTTTTTTTTTTTTTTTTTTTTTTTTT,,,binds
